For one experiment, the target named is T1, hTMPRSS6_S762A-MMH (human, UniProt Q8IU80 77-811).
T1 construct: also called REGN5330; human TMPRSS6_S762A-MMH
The experiment is described as follows: SPR, mAb captured via anti-hFc, 25 C. The method, then: (§1) The equilibrium dissociation constant (KD) for TMPRSS6 binding to different TMPRSS6 monoclonal antibodies (mAbs) was determined using a real-time surface plasmon resonance biosensor using a Biacore 4000 instrument. All binding studies were performed in 10 mM HEPES, 150 mM NaCl, 3 mM EDTA, and 0.05% v/v Surfactant Tween-20, pH 7.4 (HBS-ET) running buffer at 25° C. and 37° C. The Biacore CM5 sensor chip surface was first derivatized by amine coupling with a human Fc specific mouse mAb to capture different TMPRSS6 mAbs. […] Different concentrations (100 nM to 3.7 nM, 3-fold serial dilution) of the TMPRSS6 reagent proteins prepared in HBS-EP running buffer were injected over the TMPRSS6 mAb captured surface for 150 seconds at a flow rate of 30 μL/min and their dissociation in HBS-ET running buffer was monitored for 10 minutes. At the end of each cycle, the TMPRSS6 mAb captured surface was regenerated using a 12 second injection of 20 mM phosphoric acid.
(§2) The association rate (kₐ) and dissociation rate (kd) were determined by fitting the real-time binding sensorgrams to a 1:1 binding model with mass transport limitation using Scrubber 2.0 (BioLogic Software) curve-fitting software. Binding dissociation equilibrium constant (KD) and dissociative half-life (t½) were calculated from the kinetic rates as: […]

For another experiment, the target named is T2, mfTMPRSS6_S751A-MMH (Macaca fascicularis, UniProt Q8IU80 77-811 (human entry)).
T2 construct: also called REGN5977; Macaca fascicularis TMPRSS6 extracellular domain with a S751A mutation and a C-terminal myc-myc-hexahistidine tag
T2 chain: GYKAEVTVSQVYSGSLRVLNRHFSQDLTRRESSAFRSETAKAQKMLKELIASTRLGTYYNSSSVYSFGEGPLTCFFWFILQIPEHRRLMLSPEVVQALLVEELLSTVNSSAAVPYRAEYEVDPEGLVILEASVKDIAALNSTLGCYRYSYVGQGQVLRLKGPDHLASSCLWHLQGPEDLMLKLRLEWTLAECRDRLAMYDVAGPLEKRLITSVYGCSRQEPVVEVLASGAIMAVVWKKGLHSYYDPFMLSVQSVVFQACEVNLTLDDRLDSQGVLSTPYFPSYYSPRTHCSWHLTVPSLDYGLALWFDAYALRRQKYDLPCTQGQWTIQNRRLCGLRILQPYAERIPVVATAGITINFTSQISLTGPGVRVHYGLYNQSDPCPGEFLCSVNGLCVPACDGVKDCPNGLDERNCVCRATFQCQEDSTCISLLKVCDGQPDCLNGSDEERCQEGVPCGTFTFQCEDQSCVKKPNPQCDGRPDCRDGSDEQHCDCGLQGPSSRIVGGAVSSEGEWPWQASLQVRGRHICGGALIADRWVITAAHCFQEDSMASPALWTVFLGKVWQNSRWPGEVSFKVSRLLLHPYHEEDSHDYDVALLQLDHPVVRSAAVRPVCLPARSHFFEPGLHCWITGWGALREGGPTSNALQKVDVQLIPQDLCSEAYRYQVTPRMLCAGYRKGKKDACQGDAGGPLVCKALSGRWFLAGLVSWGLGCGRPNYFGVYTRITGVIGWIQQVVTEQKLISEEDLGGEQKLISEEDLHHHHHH
The experiment is described as follows: SPR, mAb captured via anti-hFc, 25 C. As for the experimental part:
as §1, §2

In experiment [1] the target is T3, extracellular domain of cynomolgous monkey TMPRSS6 (V673M) with N-terminal 8xHistidine, CHO conditioned media (cynomolgous monkey, UniProt Q8IU80 77-811 (human entry)).
T3 chain: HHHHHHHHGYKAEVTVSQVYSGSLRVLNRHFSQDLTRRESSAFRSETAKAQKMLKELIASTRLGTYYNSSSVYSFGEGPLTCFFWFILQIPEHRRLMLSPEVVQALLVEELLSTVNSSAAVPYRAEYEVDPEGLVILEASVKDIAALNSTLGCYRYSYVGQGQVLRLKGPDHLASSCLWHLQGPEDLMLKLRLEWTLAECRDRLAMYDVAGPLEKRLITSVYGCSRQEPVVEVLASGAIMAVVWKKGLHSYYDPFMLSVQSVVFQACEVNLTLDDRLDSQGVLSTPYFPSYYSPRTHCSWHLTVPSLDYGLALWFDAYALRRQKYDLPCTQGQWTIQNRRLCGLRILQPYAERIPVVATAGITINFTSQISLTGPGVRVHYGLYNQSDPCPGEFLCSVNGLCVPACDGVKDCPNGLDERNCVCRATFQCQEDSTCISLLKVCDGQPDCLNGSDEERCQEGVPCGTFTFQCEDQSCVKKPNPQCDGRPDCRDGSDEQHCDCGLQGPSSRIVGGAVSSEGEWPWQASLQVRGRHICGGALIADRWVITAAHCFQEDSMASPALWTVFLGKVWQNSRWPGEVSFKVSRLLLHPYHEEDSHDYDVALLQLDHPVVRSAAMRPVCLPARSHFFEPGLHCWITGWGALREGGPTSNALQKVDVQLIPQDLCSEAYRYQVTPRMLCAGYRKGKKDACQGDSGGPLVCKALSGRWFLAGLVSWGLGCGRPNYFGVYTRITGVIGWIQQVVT
The experiment is described as follows: cell-based or functional assay.

For experiment [2], the target named is extracellular domain of Human TMPRSS6 with N-terminal 8xHistidine, CHO conditioned media (human, UniProt Q8IU80 68-802, limits assumed). The experiment is described as follows: cell-based or functional assay.
Chain of extracellular domain of Human TMPRSS6 with N-terminal 8xHistidine, CHO conditioned media (Q8IU80 other isoform, or with tags, fused parts or gaps limits assumed): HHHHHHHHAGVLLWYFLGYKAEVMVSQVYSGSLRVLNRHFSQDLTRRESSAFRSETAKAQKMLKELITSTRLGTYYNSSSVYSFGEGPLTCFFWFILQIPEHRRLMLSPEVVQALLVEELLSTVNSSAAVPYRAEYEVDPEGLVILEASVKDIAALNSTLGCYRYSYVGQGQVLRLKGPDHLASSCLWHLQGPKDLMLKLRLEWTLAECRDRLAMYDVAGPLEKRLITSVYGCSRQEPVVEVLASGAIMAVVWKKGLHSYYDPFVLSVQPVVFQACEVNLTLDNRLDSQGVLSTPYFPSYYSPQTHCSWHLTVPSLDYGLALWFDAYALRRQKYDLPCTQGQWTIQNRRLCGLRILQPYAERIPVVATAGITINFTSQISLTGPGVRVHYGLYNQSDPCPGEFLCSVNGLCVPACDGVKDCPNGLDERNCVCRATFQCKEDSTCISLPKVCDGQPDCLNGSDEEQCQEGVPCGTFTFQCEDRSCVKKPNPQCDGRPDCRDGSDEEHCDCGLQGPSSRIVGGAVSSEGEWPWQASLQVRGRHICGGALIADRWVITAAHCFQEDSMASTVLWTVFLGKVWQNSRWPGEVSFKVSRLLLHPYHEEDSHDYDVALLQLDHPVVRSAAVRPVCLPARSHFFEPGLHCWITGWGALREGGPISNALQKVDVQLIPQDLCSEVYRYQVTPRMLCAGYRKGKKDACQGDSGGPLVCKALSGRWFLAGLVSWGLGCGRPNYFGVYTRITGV

B1: REGN7969 (antibody, human IgG4 S228P, kappa, V domains shown)
VH: QVQLVESGGGVVQPGRSLRLSCAASGFTFNNYGMHWVRQAPGKGLEWVAIISYDGSNEYYSDSVKGRFTISRDNSKNTLYLQMNSLRAEDTAVYYCARDQDYGGNLFHYWGQGTLVTVSS
VL: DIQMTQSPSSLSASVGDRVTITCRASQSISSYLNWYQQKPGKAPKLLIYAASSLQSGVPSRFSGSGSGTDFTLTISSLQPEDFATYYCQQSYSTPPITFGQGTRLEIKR
notes: fully human; human IgG4 Fc with hinge S108P; also called mAb37746
B1: in the experiment with hTMPRSS6_S762A-MMH, the “100 nM Ag Bound” value came to 89 RU, the Kd stood at 0.45 nM, the koff is 0.000182 s⁻¹ and the kon amounted to 404000 M⁻¹ s⁻¹. In addition, the t½ with hTMPRSS6_S762A-MMH amounted to 1.07 h. For the same molecule, in the experiment with mfTMPRSS6_S751A-MMH, the “100 nM Ag Bound” value was found to be 92 RU, binding was characterised by a dissociation constant (Kd) of 0.435 nM, the koff amounted to 0.000182 s⁻¹ and the kon turned out to be 419000 M⁻¹ s⁻¹. In the experiment with mfTMPRSS6_S751A-MMH, the t½ came out at 1.05 h. Besides, in experiment [1], the “% inhibition of enzymatic activity, CM bioassay” value (from here on “% inhibition”) was found to be 66% and the “IC50, CM bioassay” value was over 50 nM. Further, in experiment [2], the “% inhibition” value is 71% and the “IC50, CM bioassay” value is over 10 nM.

B2: REGN7971 (antibody, human IgG4 S228P, kappa, V domains shown)
VH: QVQLVESGGGVVQPGRSLRLSCAASGFTFSTYGMHWVRQAPGKGLEWVAIISYDGSNDYYLDSVKGRFTISRDNSKNTLYLQMNNLRAEDTAVYYCAKDQGYGGNLFASWGQGTLVTVSS
VL: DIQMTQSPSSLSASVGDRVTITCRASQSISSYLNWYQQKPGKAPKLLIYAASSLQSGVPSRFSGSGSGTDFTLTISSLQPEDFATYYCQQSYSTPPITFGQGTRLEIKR
notes: fully human; human IgG4 Fc with hinge S108P; also called mAb37763
As for B2, in the experiment with hTMPRSS6_S762A-MMH, the “100 nM Ag Bound” value was 103 RU, the Kd turned out to be 0.322 nM, the koff worked out at 0.000147 s⁻¹ and the kon is 455000 M⁻¹ s⁻¹. This molecule gave a t½ in the experiment with hTMPRSS6_S762A-MMH of 1.32 h. For the same molecule, in the experiment with mfTMPRSS6_S751A-MMH, the “100 nM Ag Bound” value was determined as 109 RU, the Kd came out at 0.283 nM, the koff amounted to 0.000138 s⁻¹ and the association rate constant (kon) is 487000 M⁻¹ s⁻¹. For the same molecule, the t½ in the experiment with mfTMPRSS6_S751A-MMH turned out to be 1.4 h. In experiment [1], the “% inhibition” value is 68% and the “IC50, CM bioassay” value was over 50 nM. For the same molecule, in experiment [2], the “% inhibition” value is 65% and the “IC50, CM bioassay” value was over 10 nM.

B3: REGN7974 (antibody, human IgG4 S228P, kappa, V domains shown)
VH: EVQLVESGGGLVQPGRSLRLSCIASGFNFGDYGMSWVRQAPGKGLEWVGFIRSKAYGGTTEYAASVKGRFTISRDDSKSIAYLQMNSLKTEDAAMYYCSRDYYDILTGYYGDYWGQGTLVTVSS
VL: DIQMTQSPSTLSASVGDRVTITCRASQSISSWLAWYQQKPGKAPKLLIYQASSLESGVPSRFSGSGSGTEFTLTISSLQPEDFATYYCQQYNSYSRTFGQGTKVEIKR
notes: fully human; human IgG4 Fc with hinge S108P; also called mAb41422
As for B3, in the experiment with hTMPRSS6_S762A-MMH, the “100 nM Ag Bound” value was determined as 191 RU, binding was characterised by a dissociation constant (Kd) of 2.63 nM, the off-rate (koff) stood at 0.00068 s⁻¹ and the kon came to 259000 M⁻¹ s⁻¹. For the same molecule, in the experiment with hTMPRSS6_S762A-MMH, the t½ worked out at 0.283 h. Also, in the experiment with mfTMPRSS6_S751A-MMH, the “100 nM Ag Bound” value is 188 RU; the affinity, expressed as Kd, was 7.18 nM; the koff amounted to 0.00192 s⁻¹; the kon is 268000 M⁻¹ s⁻¹. The t½ with mfTMPRSS6_S751A-MMH came out at 0.1 h. Besides, in experiment [1], the “% inhibition” value stood at 69% and the “IC50, CM bioassay” value was over 50 nM. In experiment [2], the “% inhibition” value came out at 85% and the “IC50, CM bioassay” value was 400 nM.

B4: REGN8023 (antibody, human IgG4 S228P, kappa, V domains shown)
VH: EVQLVESGGGLVKPGGSLRISCAASGFIFVDYAMHWVRQAPGKGLEWVSGISWNSGSIGYADSVKGRFTISRDNAKKSLYLQMSGLRPEDTALYYCVKSGFYYVRSYFDNWGQGTLVTVSS
VL: DIVMTQSPLSLPVTPGEPASISCRSSQSLLDSDDGNTYLDWYLRKPGQSPQLLIYTLSYRASGVPDRFSGSGSGTDFTLKISRVEADDVGVYYCMQRIEFPLTFGGGTKVEIKR
notes: fully human; human IgG4 Fc with hinge S108P; also called mAb37699
On to B4, for which, in the experiment with hTMPRSS6_S762A-MMH, the “100 nM Ag Bound” value came out at 205 RU, binding was characterised by a dissociation constant (Kd) of 0.128 nM, the koff worked out at 8.6e-05 s⁻¹ and the kon amounted to 671000 M⁻¹ s⁻¹. In addition, the t½ with hTMPRSS6_S762A-MMH was 2.23 h. Besides, in the experiment with mfTMPRSS6_S751A-MMH, the “100 nM Ag Bound” value is 203 RU, the Kd was determined as 0.065 nM, the koff stood at 5.79e-05 s⁻¹ and the kon came out at 891000 M⁻¹ s⁻¹. In the experiment with mfTMPRSS6_S751A-MMH, this molecule registered a t½ of 3.32 h. Moreover, in experiment [1], the “% inhibition” value turned out to be 98% and the “IC50, CM bioassay” value is 0.74 nM. Besides, in experiment [2], the “% inhibition” value turned out to be 98% and the “IC50, CM bioassay” value was 0.71 nM.

B5: REGN7977 (antibody, V domains shown)
VH: EVQLVESGGGLVKPGGSLRVSCAASGVTFSNVWMSWVRQVPGKGLEWVGRIKSKTDGGTTDYAAPVKGRFTISKDDSKNTLFLQMNSLKTEDTAVYYCTTETGDFWSGYYPRFQHWGQGTLVTVSS
VL: DIQMTQSPSSLSASVGDRVTITCRASQYISTYLNWYQQKPGKAPSLLIYAASSLQSGVPSRFSGSGSGTDFTLTISSLQPEDFASYSCQQSYSTPPYTFGQGTKLEIKR
notes: fully human; human IgG4 Fc with hinge S108P; also called mAb41465
For B5, in the experiment with hTMPRSS6_S762A-MMH, the “100 nM Ag Bound” value is 159 RU, the Kd was 1.69 nM, the koff amounted to 0.000368 s⁻¹ and the on-rate constant (kon) is 218000 M⁻¹ s⁻¹. The molecule further gave a t½ with hTMPRSS6_S762A-MMH of 0.517 h. Moreover, in the experiment with mfTMPRSS6_S751A-MMH, the “100 nM Ag Bound” value stood at 155 RU, binding was characterised by a dissociation constant (Kd) of 3.09 nM, the koff was found to be 0.000697 s⁻¹ and the kon came out at 225000 M⁻¹ s⁻¹. For the same molecule, the t½ in the experiment with mfTMPRSS6_S751A-MMH came to 0.283 h. Further, in experiment [1], the “% inhibition” value was determined as 89% and the “IC50, CM bioassay” value was 50 nM. In addition, in experiment [2], the “% inhibition” value came to 94% and the “IC50, CM bioassay” value was 23 nM.

B6: REGN7999 (antibody, human IgG4 S228P, kappa, V domains shown)
VH: EVQLVESGGGLVQPGGSLRLSCAASGFTFSSYAMTWVRQAPGKGLEWVSAISGSDTSTYYADSVKGRFTISRDNSKNTLFLQMNSLRAEDTAVYYCAKHQDYDFSYYYSAMDVWGQGTTVTVSS
VL: DIQMTQSPSSLSASVGDRVIITCRASQDFNSWLAWYQQKPGKAPKLLIYAASSLQSGVPSRFSGSGSGTDFTLTISSLQPEDFATYYCQQTDSFPFTFGPGTKVDIKR
notes: fully human; human IgG4 Fc with hinge S108P; also called mAb41450
For B6, in the experiment with hTMPRSS6_S762A-MMH, the “100 nM Ag Bound” value is 176 RU, the Kd came to 0.243 nM, the koff was 6.49e-05 s⁻¹ and the kon was determined as 267000 M⁻¹ s⁻¹. For the same molecule, the t½ in the experiment with hTMPRSS6_S762A-MMH was 2.97 h. In addition, in the experiment with mfTMPRSS6_S751A-MMH, the “100 nM Ag Bound” value was 185 RU, the Kd came out at 0.11 nM, the koff turned out to be 7.23e-05 s⁻¹ and the kon was 660000 M⁻¹ s⁻¹. Moreover, the t½ with mfTMPRSS6_S751A-MMH amounted to 2.67 h. In experiment [1], the “% inhibition” value was 98% and the “IC50, CM bioassay” value stood at 1.7 nM. Further, in experiment [2], the “% inhibition” value amounted to 98% and the “IC50, CM bioassay” value was found to be 3 nM.

The values are drawn from patent publication US20220411487A1 (Regeneron, published 2022).
